Experimental findings from PMC8998802 are described below.

The test has as its target CaVβ2a residues 203 to 425, His-tagged. As to the kind of experiment: MST.

Substance AID-CaV2.2 peptide yielded a Kd of 12 to 208 nM.

AID-CaV2.1 peptide displayed a Kd of 18.3 to 93 nM.

One may read the Kd as the free concentration of one partner at which half of the binding sites on the other are occupied at equilibrium, for simple one-to-one binding. The low end stands for a tighter complex, the high end for a looser complex.
